# Target: mouse CTLA4 (mouse) (UniProt P09793)
# Assay: flow cytometry on CHO-mCTLA4 cells; SSC vs Anti-Human-IgGFc-FITC
# mouse CTLA4 (mouse), sequence (P09793 36-223 S182T limits assumed): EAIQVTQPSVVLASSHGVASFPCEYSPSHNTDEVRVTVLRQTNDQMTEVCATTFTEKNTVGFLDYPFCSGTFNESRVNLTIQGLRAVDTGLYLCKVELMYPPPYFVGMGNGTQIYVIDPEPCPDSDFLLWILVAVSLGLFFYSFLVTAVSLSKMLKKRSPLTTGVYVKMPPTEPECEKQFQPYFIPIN
substance,measurement,value
NC,% cells in the FITC-positive gate,0.133%
